In the supplement of paper PMC9170038:

System: K4 kissing-loop RNA reporter
Test: apparent KD of K4 kissing-loop reporter; higher = weaker reporter binding
Conditions: Eterna round: R107
Protocol: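 RNA-MaP round R107: designed RNA switches with theophylline, tryptophan, arginine or FMN aptamers are transcribed on-chip within common flanks. They are titrated with a labelled K4 kissing-loop RNA reporter in RNA-MaP buffer (100 mM Tris pH 7.5, 80 mM KCl, 4 mM MgCl2), without ligand or with the indicated ligand. Median apparent KD per design.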

[1] = input ligand: theophylline 20 uM
[2] = input ligand: tryptophan 2.4 mM
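Also: bound reporter read as fluorescence of individual clusters on recovered sequencing chips by microscopy, with normalized cluster intensities fitted with a binding model.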

## CACUCGGUAUCAGAUACCAGACUAACGAUACCGAGUGUAUCGGGUAGUGAUGUUACCAUAGUCCCUUGGCAGCUGAUAUACCAUA [Theo B SS t9]
Input ligand: FMN 200 uM
  apparent KD of K4 kissing-loop reporter: 249 nM
Input ligand: arginine 13.2 mM
  apparent KD of K4 kissing-loop reporter: 242 nM
Input ligand: none
  apparent KD of K4 kissing-loop reporter: 265 nM
[1]
  apparent KD of K4 kissing-loop reporter: 269 nM
[2]
  apparent KD of K4 kissing-loop reporter: 223 nM

## GGAGGAGAAUAUGAUACCAGCAGAGAGAGAGAGGAAGUAUAGUGAUGUUAUAUGAGAGAAUGCCCUUGGCAGCAUAAGAAGAAGG [SSTheophylB.A]
Input ligand: FMN 200 uM
  apparent KD of K4 kissing-loop reporter: 150 nM
Input ligand: arginine 13.2 mM
  apparent KD of K4 kissing-loop reporter: 105 nM
Input ligand: none
  apparent KD of K4 kissing-loop reporter: 136 nM
[1]
  apparent KD of K4 kissing-loop reporter: 123 nM
[2]
  apparent KD of K4 kissing-loop reporter: 105 nM

## CGCCGUAAGGCGAGCGCUCCCACUCCGGAAGGAGCGCCCGGAAGGGCAGGUAGGUCGCCGGAGUGAUGUUCCGGUGGAGGGCUCG [#2 Exclusion - Arginine A Attempt #12 (Inspired by Omei)]
Input ligand: FMN 200 uM
  apparent KD of K4 kissing-loop reporter: 229 nM
Input ligand: arginine 13.2 mM
  apparent KD of K4 kissing-loop reporter: 144 nM
Input ligand: none
  apparent KD of K4 kissing-loop reporter: 282 nM
[1]
  apparent KD of K4 kissing-loop reporter: 221 nM
[2]
  apparent KD of K4 kissing-loop reporter: 317 nM

## AUUCAGAUCUGAAGGAGCGCGUUGACAUAUUGCUUCAUUGAGCAGUGAUGUUGCUCAGUAACGCAGGUAGGUCGCAGAUCUGGCC [Arg B Ex t7a]
Input ligand: FMN 200 uM
  apparent KD of K4 kissing-loop reporter: 113 nM
Input ligand: arginine 13.2 mM
  apparent KD of K4 kissing-loop reporter: 110 nM
Input ligand: none
  apparent KD of K4 kissing-loop reporter: 99 nM
[1]
  apparent KD of K4 kissing-loop reporter: 92.3 nM
[2]
  apparent KD of K4 kissing-loop reporter: 104 nM

## CCCAAGGGCGAACCGGUAUGAUCGACGGAUACCAGAGGCGAAAGCCUCCCUUGGCAGCCGGCUGUAGUGAUGUUACACUGGUUCU
Input ligand: FMN 200 uM
  apparent KD of K4 kissing-loop reporter: 139 nM
Input ligand: arginine 13.2 mM
  apparent KD of K4 kissing-loop reporter: 98.9 nM
Input ligand: none
  apparent KD of K4 kissing-loop reporter: 168 nM
[1]
  apparent KD of K4 kissing-loop reporter: 186 nM
[2]
  apparent KD of K4 kissing-loop reporter: 143 nM

## AACCGAGGUAAUCCACAAUGAUUAGAAGAUACCAGAUAUAUAAAUAUCCCUUGGCAGCUUUGAAUGAGUGAUGUUCAUUUGUCAU [KL-SSTheo-A11]
Input ligand: FMN 200 uM
  apparent KD of K4 kissing-loop reporter: 126 nM
Input ligand: arginine 13.2 mM
  apparent KD of K4 kissing-loop reporter: 207 nM
Input ligand: none
  apparent KD of K4 kissing-loop reporter: 159 nM
[1]
  apparent KD of K4 kissing-loop reporter: 214 nM
[2]
  apparent KD of K4 kissing-loop reporter: 104 nM

## GUUACGCAUGGAAGGAGCGCACUCCGGUUGAUCGACACAGUGAUGUUGUGGUUCAUUCGAAUGCAGGUAGGUCGCCAUGUGUAAC [Ex Arginine B K4 15]
Input ligand: FMN 200 uM
  apparent KD of K4 kissing-loop reporter: 808 nM
Input ligand: arginine 13.2 mM
  apparent KD of K4 kissing-loop reporter: 593 nM
Input ligand: none
  apparent KD of K4 kissing-loop reporter: 847 nM
[1]
  apparent KD of K4 kissing-loop reporter: 886 nM
[2]
  apparent KD of K4 kissing-loop reporter: 804 nM

## GCGGGCGGCUGAAGGAGCGGGCGGGCCCGAGUGAUGUUCGGGUGGGCUGUGAGGCCCGGAGCCCAGGUAGGUCGCGGUUCCGCCC [#2 Same State - Arginine B Attempt #26 (HarryS)]
Input ligand: FMN 200 uM
  apparent KD of K4 kissing-loop reporter: 157 nM
Input ligand: arginine 13.2 mM
  apparent KD of K4 kissing-loop reporter: 107 nM
Input ligand: none
  apparent KD of K4 kissing-loop reporter: 167 nM
[1]
  apparent KD of K4 kissing-loop reporter: 146 nM
[2]
  apparent KD of K4 kissing-loop reporter: 133 nM

## CUCGAGUGAUGUUCGAUUAUGUAUACAGAUACCAGUGAAUUUUAACACCCUUGGCAGCUGGUAGAAUCAUUUUAAUUUUAACUAG [JR_SSTheophyA_Sub021]
Input ligand: FMN 200 uM
  apparent KD of K4 kissing-loop reporter: 201 nM
Input ligand: arginine 13.2 mM
  apparent KD of K4 kissing-loop reporter: 256 nM
Input ligand: none
  apparent KD of K4 kissing-loop reporter: 221 nM
[1]
  apparent KD of K4 kissing-loop reporter: 268 nM
[2]
  apparent KD of K4 kissing-loop reporter: 162 nM

## UGUGUUUACCUGACUCAGUGAUGUUGAGAAGGAGCGUGAGAAAUCACAGGUAGGUCGCUCAACCUAAAUUCAGGUGAGCACUAAA
Input ligand: FMN 200 uM
  apparent KD of K4 kissing-loop reporter: 268 nM
Input ligand: arginine 13.2 mM
  apparent KD of K4 kissing-loop reporter: 197 nM
Input ligand: none
  apparent KD of K4 kissing-loop reporter: 325 nM
[1]
  apparent KD of K4 kissing-loop reporter: 277 nM
[2]
  apparent KD of K4 kissing-loop reporter: 253 nM

## UCCUGCAAUCGCCCACGAAAGUGGAUUGAUACCAGAGUCGAAAGACUCCCUUGGCAGCGAGUGAUGUUCGAAGCAGGUAAAUAAA
Input ligand: FMN 200 uM
  apparent KD of K4 kissing-loop reporter: 326 nM
Input ligand: arginine 13.2 mM
  apparent KD of K4 kissing-loop reporter: 503 nM
Input ligand: none
  apparent KD of K4 kissing-loop reporter: 562 nM
[1]
  apparent KD of K4 kissing-loop reporter: 540 nM
[2]
  apparent KD of K4 kissing-loop reporter: 459 nM

## AAACGUUGGUCUGAUACCAGCUUGAUCGGUAAACGAUCUACUGGAGUGAUGUUCCUAAAUAGCCCUUGGCAGCAGACCGACGAAA [MAT - Same State Theophlline B - Mod of Eli - D7]
Input ligand: FMN 200 uM
  apparent KD of K4 kissing-loop reporter: 195 nM
Input ligand: arginine 13.2 mM
  apparent KD of K4 kissing-loop reporter: 163 nM
Input ligand: none
  apparent KD of K4 kissing-loop reporter: 173 nM
[1]
  apparent KD of K4 kissing-loop reporter: 118 nM
[2]
  apparent KD of K4 kissing-loop reporter: 170 nM

## GCCGUAGAUUGAAGGAGCGGCACCCACGGCUCUAACACCUAAGUGAUGUUUAGGUAGUGGUGCCAGGUAGGUCGCAAUCUACGGC
Input ligand: FMN 200 uM
  apparent KD of K4 kissing-loop reporter: 144 nM
Input ligand: arginine 13.2 mM
  apparent KD of K4 kissing-loop reporter: 153 nM
Input ligand: none
  apparent KD of K4 kissing-loop reporter: 124 nM
[1]
  apparent KD of K4 kissing-loop reporter: 133 nM
[2]
  apparent KD of K4 kissing-loop reporter: 131 nM

## GAAAGAAAGUAUGAUACCAGACACCCGAGUGAUGUUCGGAGCAGUGUGAUGUUCUUUUAAGUCCCUUGGCAGCAUAAAAGAAAAG [whbob_SS_Theo_B_sa84]
Input ligand: FMN 200 uM
  apparent KD of K4 kissing-loop reporter: 122 nM
Input ligand: arginine 13.2 mM
  apparent KD of K4 kissing-loop reporter: 142 nM
Input ligand: none
  apparent KD of K4 kissing-loop reporter: 126 nM
[1]
  apparent KD of K4 kissing-loop reporter: 101 nM
[2]
  apparent KD of K4 kissing-loop reporter: 91.7 nM

## GUUUCAGUGAUGUUGGAAGGCGAGCGGGAUACCAGCCAAGACUCAGGCCCUUGGCAGCCCACAUAUCCCACGUAGAUAGUAGCUC [Same State - Theophylline A (Freestyle 14)]
Input ligand: FMN 200 uM
  apparent KD of K4 kissing-loop reporter: 161 nM
Input ligand: arginine 13.2 mM
  apparent KD of K4 kissing-loop reporter: 116 nM
Input ligand: none
  apparent KD of K4 kissing-loop reporter: 133 nM
[1]
  apparent KD of K4 kissing-loop reporter: 153 nM
[2]
  apparent KD of K4 kissing-loop reporter: 137 nM

## GCACUUCUCAGUGAUGUUGAGUAAUCGGAAGGAGCGCGUGAAAACGCAGGUAGGUCGCCGAUACAUGAAGUAUCUUCGUGUGUGC [Arginine A K4 25]
Input ligand: FMN 200 uM
  apparent KD of K4 kissing-loop reporter: 306 nM
Input ligand: arginine 13.2 mM
  apparent KD of K4 kissing-loop reporter: 235 nM
Input ligand: none
  apparent KD of K4 kissing-loop reporter: 295 nM
[1]
  apparent KD of K4 kissing-loop reporter: 279 nM
[2]
  apparent KD of K4 kissing-loop reporter: 216 nM

## GUGACCUACUCAGGAUAUCCGCAGUGAUGUUGCGGUUGGCCUGAGCGACAUGAAAAUCUUACUACAGGAGAAGGGAGAGGGUUAC [Leanteti]
Input ligand: FMN 200 uM
  apparent KD of K4 kissing-loop reporter: 113 nM
Input ligand: arginine 13.2 mM
  apparent KD of K4 kissing-loop reporter: 92.7 nM
Input ligand: none
  apparent KD of K4 kissing-loop reporter: 109 nM
[1]
  apparent KD of K4 kissing-loop reporter: 89.2 nM
[2]
  apparent KD of K4 kissing-loop reporter: 91.5 nM

## UAUUAAUAUUUUUCAGUGAUGUUAAUUGAUACCAGCCCGAAACCGGGCCCUUGGCAGCGAGUGAUGUUGGUUGUCAGCAUAAAUA [KL-XTheo-A13]
Input ligand: FMN 200 uM
  apparent KD of K4 kissing-loop reporter: 860 nM
Input ligand: arginine 13.2 mM
  apparent KD of K4 kissing-loop reporter: 596 nM
Input ligand: none
  apparent KD of K4 kissing-loop reporter: 836 nM
[1]
  apparent KD of K4 kissing-loop reporter: 676 nM
[2]
  apparent KD of K4 kissing-loop reporter: 667 nM

## CACCAUGAAUUCUCUAGGAGUGAUGUUUUUCGAGGACCGGUACGGCCGCCACUCGGACCAGGAACGUGGGAGCGGCGAAAAGACU [ttmullin]
Input ligand: FMN 200 uM
  apparent KD of K4 kissing-loop reporter: 656 nM
Input ligand: arginine 13.2 mM
  apparent KD of K4 kissing-loop reporter: 438 nM
Input ligand: none
  apparent KD of K4 kissing-loop reporter: 688 nM
[1]
  apparent KD of K4 kissing-loop reporter: 494 nM
[2]
  apparent KD of K4 kissing-loop reporter: 373 nM

## UUUUUGGAGAAUUAUAGUGAUGUUAUGAAGGAGGAUAUCUGGAGAUGGAGAAGGCCUAGUGGCUCAGCCCUCGAGGGUGGGUGGG [ExFMNA.aC]
Input ligand: FMN 200 uM
  apparent KD of K4 kissing-loop reporter: 646 nM
Input ligand: arginine 13.2 mM
  apparent KD of K4 kissing-loop reporter: 626 nM
Input ligand: none
  apparent KD of K4 kissing-loop reporter: 441 nM
[1]
  apparent KD of K4 kissing-loop reporter: 778 nM
[2]
  apparent KD of K4 kissing-loop reporter: 354 nM

## CGAGUGAUGUUCGAAGAGUUGUUAAGCGAUACCAGCUAGGAAACUGGCCCUUGGCAGCGUAAUAAGUUAAUAAAUAAAUGAUCAC [whbob_Ex_Theo_A_th64]
Input ligand: FMN 200 uM
  apparent KD of K4 kissing-loop reporter: 376 nM
Input ligand: arginine 13.2 mM
  apparent KD of K4 kissing-loop reporter: 411 nM
Input ligand: none
  apparent KD of K4 kissing-loop reporter: 360 nM
[1]
  apparent KD of K4 kissing-loop reporter: 449 nM
[2]
  apparent KD of K4 kissing-loop reporter: 301 nM
